Values joined by “and” are separate entries in the source; they are usually repeats but may differ in a detail not shown here. Equal values may be shown once. Read-outs that look alike come from different tables or passages of the source.

The target in assay [1] is T1, wild-type human PCSK9 (human, UniProt Q8NBP7 31-692, limits assumed).
T1 construct: also called PCSK9 antigen
Briefly: SPR (Biacore T100), average KD of the two 1F11 runs. The method, then: (§1) The CM5 chip was immobilized on all flowcells with mouse anti-human IgG (Fc specific) according to the Biacore Human Antibody Capture Kit (Cat# BR-1008-39) to ˜7000RU. Anti-PCSK9 antibodies were captured on the chip to ˜500RU followed by analyte injections of wild-type human PCSK9 from 64.1 nM to 2.0 nM. Each flowcell was regenerated between each analyte injection with 3M MgCl for 40 seconds at 10 uL/min. Data was analyzed with Biacore T100 Evaluation Software using the 1:1 binding model using at least 5 point concentration range sensogram.

Assay [2] deals with T1, wild-type human PCSK9. The assay can be described thus: SPR (Biacore T100), antibody captured by anti-human Fc, PCSK9 as analyte, 1:1 model. The method, then:
as §1

The next assay addresses T2, FcγRIIA H (UniProt P12318 34-217, limits assumed).
T2 construct: also called FcgRIIA H
T2 sequence (looked up): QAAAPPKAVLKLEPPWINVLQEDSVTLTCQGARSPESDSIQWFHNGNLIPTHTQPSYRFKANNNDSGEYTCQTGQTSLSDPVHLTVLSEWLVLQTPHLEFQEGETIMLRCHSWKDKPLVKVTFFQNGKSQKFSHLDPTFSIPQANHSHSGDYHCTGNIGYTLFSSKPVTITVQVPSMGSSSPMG
The assay can be described thus: FcγR affinity assay 'as described in Example 7', n = 3; printed as Affinity (nM) ± STDEV. The method, then:
(§2) Fcγ receptor binding assays were carried out as described (Shields, et al. (2001) J. Biol. Chem. 276:6591-6604) with minor modifications. High protein binding 96-well plates (Corning Costar) were coated with 100 μL per well of Fcγ receptor solutions in PBS at the following concentrations: 1 μg/mL for both FcγRI (R&D Systems) and FcγRIIa (Pichia pastoris produced), 2 μg/mL for FcγRIIb (P. pastoris produced), 0.8 μg/mL for FcγRIIIa-F158, and 0.4 μg/mL for FcγRIIIa-V158 (both P. pastoris produced). All Pichia pastoris produced receptors were expressed and purified as described (Li, et al. (2006) Nature Biotechnology 24:210-215). Monomeric antibody samples added to the FcγRI plate were serially diluted in assay diluent (1×PBS, 1% BSA, and 0.05% Tween20) and 100 μL, per well was added to the plate. Antibody samples prepared for the remaining receptors require a one hour dimerization step with half molar ratio of goat anti-human IgG F(ab′)2 F(ab′)2 that is conjugated with alkaline phosphatase for detection. These dimerized F(ab′)2/antibody complexes were also serially diluted and 100 μL per well were added to the remaining receptor plates and all plates were incubated for one hour at room temperature. FcγRI bound sample antibody was detected using the same goat anti-human IgG F(ab′)2 alkaline phosphatase conjugated F(ab′)2. Sample antibody binding was quantified by measuring excitation at 340 nm and emission at 465 nm after 18 hour incubation with SuperPhos, 4-MUP Fluorescence AP Substrate Detection System (Virolabs).

Assay [3] has as its target T3, FcγRIIb (Pichia pastoris produced) (UniProt P31994 43-217, limits assumed).
T3 construct: also called FcgRIIB; CD32B
T3 sequence (looked up): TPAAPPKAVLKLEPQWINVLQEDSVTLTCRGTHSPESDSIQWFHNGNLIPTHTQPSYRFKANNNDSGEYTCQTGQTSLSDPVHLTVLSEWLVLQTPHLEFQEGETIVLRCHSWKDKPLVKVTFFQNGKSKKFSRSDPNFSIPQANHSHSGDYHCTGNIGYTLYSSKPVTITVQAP
The description is as above. On the procedure: as §2

Assay [4] deals with T3, FcγRIIb (Pichia pastoris produced). Briefly: ELISA-type plate assay, FcγR coated, antibody dimerized with AP-conjugated goat anti-human IgG F(ab')2, RFU readout. On the procedure:
as §2

Assay [5] addresses T4, FcγRIIIa-F158 (Pichia pastoris produced) (UniProt P08637 17-208, limits assumed).
T4 construct: also called FcγRIIIA LF; FcgRIIIA LF
The description is as above. The method, then:
as §2

Assay [6] deals with T3, FcγRIIb (Pichia pastoris produced). The assay is described as above. The method, then: as §2
This is another data set of the same source.

The target in assay [7] is T5, FcγRI (R&D Systems) (UniProt P12314 16-288).
T5 construct: Bought reagent, coated on the plate at 1 µg/mL; also called Fc gamma receptor I; CD64
Briefly: ELISA-type plate assay, FcγRI coated, monomeric antibody, detected with AP-conjugated goat anti-human IgG F(ab')2, RFU readout. The method, then:
as §2, with “These dimerized F(ab′)2/antibody complexes were also serially diluted and 100 μL per well were added to the remaining receptor plates and all plates were incubated for one hour at room temperature.” left out

Assay [8] addresses T5, FcγRI (R&D Systems). The description is as above. The method, then:
as §2, with “These dimerized F(ab′)2/antibody complexes were also serially diluted and 100 μL per well were added to the remaining receptor plates and all plates were incubated for one hour at room temperature.” left out
The source holds these as a separate data set.

Assay [9] addresses T4, FcγRIIIa-F158 (Pichia pastoris produced). The assay can be described thus: ELISA on plate-coated receptor; antibody dimerized with anti-human IgG F(ab')2-AP; ELISA IC50, YGLY23258 (dimer), Table 5 experiment. On the procedure: as §2, with “These dimerized F(ab′)2/antibody complexes were also serially diluted and 100 μL per well were added to the remaining receptor plates and all plates were incubated for one hour at room temperature.” left out

Assay [10] deals with T6, FcγRIIIa-V158 (Pichia pastoris produced) (UniProt P08637 17-208, limits assumed).
T6 construct: also called FcγRIIIA LV; FcgRIIIA LV
The assay is described as above. On the procedure: as §2, with “These dimerized F(ab′)2/antibody complexes were also serially diluted and 100 μL per well were added to the remaining receptor plates and all plates were incubated for one hour at room temperature.” left out

Assay [11] has as its target T4, FcγRIIIa-F158 (Pichia pastoris produced). The assay can be described thus: ELISA on plate-coated receptor; antibody dimerized with anti-human IgG F(ab')2-AP; ELISA IC50, YGLY23258 (dimer), Table 7 experiment. The method, then: as §2, with “These dimerized F(ab′)2/antibody complexes were also serially diluted and 100 μL per well were added to the remaining receptor plates and all plates were incubated for one hour at room temperature.” left out

Assay [12] has as its target T6, FcγRIIIa-V158 (Pichia pastoris produced). The description is as above. The method, then:
as §2, with “These dimerized F(ab′)2/antibody complexes were also serially diluted and 100 μL per well were added to the remaining receptor plates and all plates were incubated for one hour at room temperature.” left out

T4 sequence (P08637 17-208 limits assumed): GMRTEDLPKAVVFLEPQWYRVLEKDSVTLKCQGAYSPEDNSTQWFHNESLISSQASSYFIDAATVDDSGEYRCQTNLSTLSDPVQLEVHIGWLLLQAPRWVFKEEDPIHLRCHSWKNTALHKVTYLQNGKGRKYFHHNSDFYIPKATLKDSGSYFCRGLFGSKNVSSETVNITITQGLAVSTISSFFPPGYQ
T5 sequence (P12314 16-288 limits assumed): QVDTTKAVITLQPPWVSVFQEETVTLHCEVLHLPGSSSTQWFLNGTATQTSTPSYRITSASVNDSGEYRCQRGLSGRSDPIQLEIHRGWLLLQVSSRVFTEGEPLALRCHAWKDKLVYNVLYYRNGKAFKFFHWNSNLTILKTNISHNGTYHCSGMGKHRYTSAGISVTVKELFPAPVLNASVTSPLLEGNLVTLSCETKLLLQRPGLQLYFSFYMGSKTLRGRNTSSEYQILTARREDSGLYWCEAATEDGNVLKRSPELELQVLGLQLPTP
T6 sequence (P08637 17-208 F176V limits assumed): as the sequence (P08637 17-208 limits assumed) above, with F160V counted along it

B1: 1F11 wildtype (parent) humanized anti-PCSK9 monoclonal IgG1 antibody (antibody)
heavy: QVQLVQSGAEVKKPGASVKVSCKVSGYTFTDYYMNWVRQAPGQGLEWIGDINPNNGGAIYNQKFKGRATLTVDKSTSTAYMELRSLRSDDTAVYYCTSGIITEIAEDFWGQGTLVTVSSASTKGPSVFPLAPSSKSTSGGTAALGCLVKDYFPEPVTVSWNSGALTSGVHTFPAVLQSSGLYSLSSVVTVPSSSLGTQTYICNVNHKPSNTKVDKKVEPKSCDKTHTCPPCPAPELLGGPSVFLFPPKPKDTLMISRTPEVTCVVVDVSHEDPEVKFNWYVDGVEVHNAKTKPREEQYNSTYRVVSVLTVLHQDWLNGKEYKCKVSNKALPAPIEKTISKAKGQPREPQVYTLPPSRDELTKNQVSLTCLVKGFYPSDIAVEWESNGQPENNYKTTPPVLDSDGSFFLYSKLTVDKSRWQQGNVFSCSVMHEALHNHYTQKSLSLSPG
light: DIQMTQSPSSLSASVGDRVTITCKASQNVGTNVVWYQQKPGKAPKALIHSASYRYSGVPSRFSGSGSGTDFTLTISSLQPEDFATYYCQQYKTYPYTFGQGTKVEIKRTVAAPSVFIFPPSDEQLKSGTASVVCLLNNFYPREAKVQWKVDNALQSGNSQESVTEQDSKDSTYSLSSTLTLSKADYEKHKVYACEVTHQGLSSPVTKSFNRGEC
notes: Produced in glycoengineered Pichia pastoris GFI5.0 (strain YGLY21351); also called 1F11 IgG1 GS5.0; YGLY21351
Take B1: the equilibrium dissociation constant (Kd) with wild-type human PCSK9 [1] was 2.8 nM; in the assay with wild-type human PCSK9 [2], 3.29 nM and 2.3 nM; with FcγRIIA H it was 892 nM; in [3], 545 nM. In the assay with wild-type human PCSK9 [2], the koff was 0.000499 s⁻¹ and 0.000407 s⁻¹. Moreover, the on-rate (kon) with wild-type human PCSK9 [2] was 152000 M⁻¹ s⁻¹ and 177000 M⁻¹ s⁻¹. Besides, the “EC50 (read off the curve)” value is ~0.4 µg/mL in assay [4]; ~0.02 µg/mL in assay [5]; ~0.2 µg/mL in [6]; ~0.08 µg/mL with FcγRI (R&D Systems) [7]; ~0.08 µg/mL with FcγRI (R&D Systems) [8].

B2: 1F11 IgG1 F243A/V264A double mutein anti-PCSK9 antibody (antibody)
heavy: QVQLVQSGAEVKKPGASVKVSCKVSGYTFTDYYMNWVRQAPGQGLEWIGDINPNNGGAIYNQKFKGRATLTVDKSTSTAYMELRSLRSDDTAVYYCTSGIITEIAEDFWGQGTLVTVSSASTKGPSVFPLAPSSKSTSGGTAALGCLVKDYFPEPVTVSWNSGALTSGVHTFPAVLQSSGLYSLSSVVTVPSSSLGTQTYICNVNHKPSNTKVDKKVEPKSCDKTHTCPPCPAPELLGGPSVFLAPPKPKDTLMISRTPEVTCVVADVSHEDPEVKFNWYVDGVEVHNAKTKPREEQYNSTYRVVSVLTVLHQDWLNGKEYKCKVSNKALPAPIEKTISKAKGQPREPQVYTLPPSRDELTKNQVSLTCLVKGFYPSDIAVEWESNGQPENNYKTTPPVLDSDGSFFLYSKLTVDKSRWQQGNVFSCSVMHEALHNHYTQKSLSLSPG
light: DIQMTQSPSSLSASVGDRVTITCKASQNVGTNVVWYQQKPGKAPKALIHSASYRYSGVPSRFSGSGSGTDFTLTISSLQPEDFATYYCQQYKTYPYTFGQGTKVEIKRTVAAPSVFIFPPSDEQLKSGTASVVCLLNNFYPREAKVQWKVDNALQSGNSQESVTEQDSKDSTYSLSSTLTLSKADYEKHKVYACEVTHQGLSSPVTKSFNRGEC
notes: sialylated N-glycans; also called 1F11 DM; YGLY23258
For the molecule B2, the half-maximal inhibitory concentration (IC50) in assay [9] turned out to be 0.94 µg/mL; in assay [10], 0.13 µg/mL; in [11] it was 1.31 µg/mL; in assay [12], 0.16 µg/mL.

The values are drawn from patent US20140086916A1 (Merck Sharp & Dohme, published 2014).
